From article PMC11148069 (2024)

B4: recombinant human Nup93 target (BLI) (natural protein)
chain: MDTEGFGELLQQAEQLAAETEGISELPHVERNLQEIQQAGERLRSRTLTRTSQETADVKASVLLGSRGLDISHISQRLESLSAATTFEPLEPVKDTDIQGFLKNEKDNALLSAIEESRKRTFGMAEEYHRESMLVEWEQVKQRILHTLLASGEDALDFTQESEPSYISDVGPPGRSSLDNIEMAYARQIYIYNEKIVNGHLQPNLVDLCASVAELDDKSISDMWTMVKQMTDVLLTPATDALKNRSSVEVRMEFVRQALAYLEQSYKNYTLVTVFGNLHQAQLGGVPGTYQLVRSFLNIKLPAPLPGLQDGEVEGHPVWALIYYCMRCGDLLAASQVVNRAQHQLGEFKTWFQEYMNSKDRRLSPATENKLRLHYRRALRNNTDPYKRAVYCIIGRCDVTDNQSEVADKTEDYLWLKLNQVCFDDDGTSSPQDRLTLSQFQKQLLEDYGESHFTVNQQPFLYFQVLFLTAQFEAAVAFLFRMERLRCHAVHVALVLFELKLLLKSSGQSAQLLSHEPGDPPCLRRLNFVRLLMLYTRKFESTDPREALQYFYFLRDEKDSQGENMFLRCVSELVIESREFDMILGKLENDGSRKPGVIDKFTSDTKPIINKVASVAENKGLFEEAAKLYDLAKNADKVLELMNKLLSPVVPQISAPQSNKERLKNMALSIAERYRAQGISANKFVDSTFYLLLDLITFFDEYHSGHIDRAFDIIERLKLVPLNQESVEERVAAFRNFSDEIRHNLSEVLLATMNILFTQFKRLKGTSPSSSSRPQRVIEDRDSQLRSQARTLITFAGMIPYRTSGDTNARLVQMEVLMN

Tests used:
Test in all cases: BLI
[1] = target: T1, recombinant Xenopus Nup98 target (BLI) (Xenopus)
T1 chain: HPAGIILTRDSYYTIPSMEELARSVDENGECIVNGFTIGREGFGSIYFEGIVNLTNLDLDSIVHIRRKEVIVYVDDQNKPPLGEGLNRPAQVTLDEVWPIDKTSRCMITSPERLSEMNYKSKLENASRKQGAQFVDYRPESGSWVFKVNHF

[2] = target: T2, recombinant human Nup98 target (BLI) (human, UniProt P52948 1-880)
T2 chain: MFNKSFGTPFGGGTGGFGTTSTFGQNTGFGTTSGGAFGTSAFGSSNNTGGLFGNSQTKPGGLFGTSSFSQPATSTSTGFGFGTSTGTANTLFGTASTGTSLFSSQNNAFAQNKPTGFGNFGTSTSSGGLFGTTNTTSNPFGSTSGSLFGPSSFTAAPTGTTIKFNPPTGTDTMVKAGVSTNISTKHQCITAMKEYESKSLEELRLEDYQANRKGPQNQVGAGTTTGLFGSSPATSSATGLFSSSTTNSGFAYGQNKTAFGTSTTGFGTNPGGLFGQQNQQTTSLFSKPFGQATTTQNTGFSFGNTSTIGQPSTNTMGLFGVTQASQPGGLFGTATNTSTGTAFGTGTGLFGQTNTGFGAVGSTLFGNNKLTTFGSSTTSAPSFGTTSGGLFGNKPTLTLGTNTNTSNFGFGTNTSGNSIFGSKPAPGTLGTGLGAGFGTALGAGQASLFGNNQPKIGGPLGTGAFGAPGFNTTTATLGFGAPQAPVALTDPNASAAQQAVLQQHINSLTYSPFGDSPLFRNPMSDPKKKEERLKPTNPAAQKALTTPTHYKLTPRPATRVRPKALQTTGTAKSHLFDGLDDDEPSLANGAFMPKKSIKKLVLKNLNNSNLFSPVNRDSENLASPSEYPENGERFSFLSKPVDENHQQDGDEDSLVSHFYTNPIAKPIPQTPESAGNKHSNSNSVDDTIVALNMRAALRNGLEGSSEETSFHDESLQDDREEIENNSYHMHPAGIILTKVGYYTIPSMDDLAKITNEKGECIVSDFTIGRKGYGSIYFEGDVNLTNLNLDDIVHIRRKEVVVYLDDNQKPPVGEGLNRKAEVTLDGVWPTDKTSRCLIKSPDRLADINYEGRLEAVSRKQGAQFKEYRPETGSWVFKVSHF

[3] = target: T3, recombinant Xenopus Nup93 target (BLI) (Xenopus, UniProt Q7ZX96 1-820)
T3 chain: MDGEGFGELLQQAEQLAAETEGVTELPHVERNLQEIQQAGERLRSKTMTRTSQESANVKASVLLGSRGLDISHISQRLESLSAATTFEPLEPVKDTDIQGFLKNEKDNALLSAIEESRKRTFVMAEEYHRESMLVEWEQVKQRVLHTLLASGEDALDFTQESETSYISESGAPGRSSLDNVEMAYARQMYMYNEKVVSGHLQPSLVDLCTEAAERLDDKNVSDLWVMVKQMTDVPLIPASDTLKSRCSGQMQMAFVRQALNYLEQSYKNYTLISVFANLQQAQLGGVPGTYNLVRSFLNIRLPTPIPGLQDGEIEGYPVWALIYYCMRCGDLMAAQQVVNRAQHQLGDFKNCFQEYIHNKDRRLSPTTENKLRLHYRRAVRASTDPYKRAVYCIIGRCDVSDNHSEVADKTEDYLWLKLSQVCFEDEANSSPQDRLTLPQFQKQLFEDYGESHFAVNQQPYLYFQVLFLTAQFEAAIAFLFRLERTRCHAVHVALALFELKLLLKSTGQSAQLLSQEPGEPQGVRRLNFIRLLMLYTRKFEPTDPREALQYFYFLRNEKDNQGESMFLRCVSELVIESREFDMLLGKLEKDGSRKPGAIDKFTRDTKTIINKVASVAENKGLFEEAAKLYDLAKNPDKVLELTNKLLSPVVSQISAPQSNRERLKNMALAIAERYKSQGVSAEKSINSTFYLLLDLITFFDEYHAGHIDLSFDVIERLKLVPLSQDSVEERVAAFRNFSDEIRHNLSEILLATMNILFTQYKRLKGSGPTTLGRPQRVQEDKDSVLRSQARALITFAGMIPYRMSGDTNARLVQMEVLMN

[4] = target: T4, Xenopus Nup35, endogenous (Xenopus (endogenous in egg extract))
T4 chain: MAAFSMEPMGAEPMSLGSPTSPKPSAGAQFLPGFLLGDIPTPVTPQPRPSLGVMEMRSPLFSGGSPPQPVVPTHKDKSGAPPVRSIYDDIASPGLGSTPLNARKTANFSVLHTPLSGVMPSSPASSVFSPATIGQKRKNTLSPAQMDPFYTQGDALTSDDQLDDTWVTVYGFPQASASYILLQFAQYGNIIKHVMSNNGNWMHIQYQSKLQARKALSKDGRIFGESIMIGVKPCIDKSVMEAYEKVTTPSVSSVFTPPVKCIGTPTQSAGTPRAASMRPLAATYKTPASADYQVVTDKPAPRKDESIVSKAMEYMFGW

human Nup35, endogenous = target: T5, human Nup35, endogenous (human (endogenous in HeLa), UniProt Q8NFH5 1-326)
T5 chain: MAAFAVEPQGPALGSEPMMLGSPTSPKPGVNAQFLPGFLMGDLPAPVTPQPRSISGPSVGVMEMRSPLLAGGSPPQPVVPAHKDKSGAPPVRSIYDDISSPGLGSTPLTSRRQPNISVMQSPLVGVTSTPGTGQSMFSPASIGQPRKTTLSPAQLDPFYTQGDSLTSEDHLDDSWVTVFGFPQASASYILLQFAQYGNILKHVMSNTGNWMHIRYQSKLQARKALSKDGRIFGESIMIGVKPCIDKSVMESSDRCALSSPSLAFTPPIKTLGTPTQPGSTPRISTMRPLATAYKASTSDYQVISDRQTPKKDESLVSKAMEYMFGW

xhNup93-Nb3t = target: xhNup93-Nb3t
[5] = target: B4

B1: xhNup98-Nb3i (VHH)
VHH: QVQLVESGGGLVQAGGSLRLSCAASGRTFSTYAMGWFRQAPGKEREFVSACSWSGGITRYADSVKGRFTISRDNAKNTVYLQMNSLKPEDTAVYYCASAASSAAYSGAYYYTSYYDYWGQGTQVTVSS
Work on B1 yielded a Kd [1] of less than 0.01 nM and a Kd [2] of less than 0.01 nM.

B2: xNup93-Nb2t (VHH)
VHH: DVQLVESGGGLVQPGGSLRLSCVASGFTFSRVGMGWVRQAPGKGLEWVSDINASGGTGYADSVKGRFAISRDNAKNTLYLQMNRLKPEDTAVYYCAKMMDTAMIEAGIIKPAGQGTQVTVSS
B2 gave a Kd [3] of 4 nM.

B3: xhNup35-Nb1t (VHH)
VHH: QVQLVESGGGLVQAGGSLRLSCVGTGNISSAYTMAWYRQAAGKEREVVAGILNGGSTHYADSVKGRFTISRDNAKNTVYLQMNSLQPEDTGVYCCHVVIESTRFVYDHYWGQGTRVTVSS
With B3 the Kd [4] was 0.5 nM and the Kd (human Nup35, endogenous) was 0.8 nM.

B4 gave a Kd (xhNup93-Nb3t) of 1 nM.

B5: xNup98-Nb1t (as added in the binding assay of Fig. 11C) (VHH)
VHH: QVQLVESGGGPVEAGGSLRLSCAASGRSFSNSVMAWFRQAPGKEREFLSVLNWSSGRTSIADSVKGRFTMSRDPAKITVYLQMNGLKPEDTAVYYCAASNRGSLYTLDNQNRYEDWGQGTQVTVSS
B5 was tested, and the Kd [1] was 1.7 nM and the Kd [2] was greater than 100 nM.

B6: xhNup93-Nb4i, biotinylated for BLI (VHH)
VHH: QVQLVESGGGVVQTGDSLMLSCTVSGHTIDNWAMGWFRQTPRKQREFVAAIDKRGTGAIYGNSVKGRFTVSRDNAKNMVYLRMNSLKPEDTAVYFCAVDQLNAGLGDVSYDYDYWGQGTQVTVSS
modifications: Biotin-[PEG]3-maleimide on two ectopic cysteines
For B6, the Kd [3] was less than 0.01 nM and the Kd [5] was 3 nM.

B7: xhNup98-Nb2i, biotinylated for BLI (VHH)
VHH: QVQLVESGGGLAKPGGSLRLSCVATGTFRSMEDVGWYRQAPGKDRELVAEITTLGKVTYADSVKGRFTISRDDAKNAVYLQMSDLKSEDTAVYYCNIEADQTKGIGYVVYPYWGQGTRVTVSS
modifications: Biotin-[PEG]3-maleimide on two ectopic cysteines
B7 gave a Kd [1] of less than 0.01 nM and a Kd [2] of 0.02 nM.
